Assay results from patent US20210292393A1 (published 2021).
Numbering of substitutions follows the chain as printed.

B1: antibody 344 (antibody, V domains shown)
VH: QVQLVESGGGVVQPGRSLRLSCAASGFTFSSYAMHWVRQAPGKGLEWMAVISYDGSNKYYADSVKGRFTISRDNSKNTLYLQMNSLRAEDTAVYFCAKGYSGSYYEPFDYWGQGTLVTVSS
VL: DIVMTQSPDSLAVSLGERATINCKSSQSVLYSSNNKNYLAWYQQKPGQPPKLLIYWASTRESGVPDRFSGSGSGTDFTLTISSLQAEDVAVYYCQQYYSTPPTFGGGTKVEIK
B2: antibody 324 (antibody, V domains shown)
VH: QVQLQESGPGLVKPSGTLSLTCAVSGGSISSSNWWSWVRQPPGKGLEWIGEIYHSGSTNYNPSLKSRVTISVDNSKNQFSLKLSSVTAADTAVYYCARESVAAAGISYYYYGMDVWGQGTTVTVSS
VL: EIVLTQSPGTLSLSPGERATLSCRASQSVSGRYLAWYQQKPGQAPRLLIYGASSRATGIPDRFSGSGSGTDFTLTISRLEPEDFAVYYCQHYGSSPGTFGQGTRLEIK
B3: antibody 343 (antibody, V domains shown)
VH: QVQLVESGGDVVQPGTSLRLSCAASGFTFNNYGFHWVRQAPGKGLEWVALISSDGASTHYADSVKGRFTISRDSSVNTLYLQMNSLSLEDTAVYYCATGHCGTTCYYFDYWGQGTLVSVSS
VL: DIQVTQSPSYLSASVGDRVTITCRASQTISTFLQWYQQKVGKAPKLLIYAASTLQSGVPSRFSGSGSGTDFSLTISSLQPEDFATYYCQQSYSAPLSFGGGTKVEIK
B4: antibody 323 (antibody, V domains shown)
VH: QVQLVQSGAEVKKPGASVKVSCKVSGYTLTELSMHWVRQAPGKGLEWMGGFDPEDGETIYAQKFQGRVTMTEDTSTDTAYMELSSLRSEDTAVYYCATSTIFAPGGWFDPWGQGTLVTVSS
VL: QSALTQPASVSGSPGQSITISCTGTSSDVGSYNLVSWYQQHPGKAPKLMIYEVSKRPSGVSNRFSGSKSGNTASLTISGLQAEDEADYYCCSYAGSTHYVFGTGTKVTVL
B5: antibody 378 (antibody, V domains shown)
VH: QVQLVQSGAEVKKPGASVKVSCKASGYTFTSYYMHWVRQAPGQGLEWMGIINPSGGSTSYAQKFQGRVTMTRDTSTSTVYMELSSLRSEDTAVYYCARDSGGMDDFWSGYYSPGGDYWGQGTLVTVSS
VL: B4 VL with V53G, T97S, H98T, Y99W, T103G, V107L
B6: antibody 367 (antibody, V domains shown)
VH: QVQLVQSGAEVKKPGASVKVSCKASGYTFTGYYIHWVRQAPGQGLEWMGWINPNSGGTIYAQKFQGRVTMTRDTSISTAYMELSRLTSDDTAVYSCAREPYYDILTGYYAPRRYFDYWGQGTLVTVSS
VL: QSALTQPASVSGSPGQSITISCTGTSSDVGSYNYVSWYLQHPGKAPKLMIYDVSNRPSGVSNRFSGSKSGNTASLTISGLQAEDEADFYCSSYTSRSTYVFGTGTKVTVL
B7: antibody 363 (antibody, V domains shown)
VH: EVQLLESGGGLVQPGGSLRLSCAASGFTFSTYAMSWVRQAPGKGLEWVSAISGSGGSTYYADSVKGRFTISRDNSKNTLYLQMNSLRAEDTAVYYCASGYSPDYWGQGTLVTVSS
VL: not shown
B8: antibody 380 (antibody, V domains shown)
VH: QVQLVESGGGVVQPGRSLRLSCAASGFTLKNYGMHWVRQAPGKGLEWVIVLSFDGSDEYKADSVRGRFTVSRDNSKNTLFLQMNSLRPDDTAVYYCAREQPTMIEGGRGPFDIWGQGTMVTVSS
VL: EVVMTQSPATLSVSPGDRATLSCRASQGVNSNLAWYQQKPGQAPRLLIYAASTRATGIPARFSASGSGTHFTLTISSLQSEDFAVYYCLQYNNWPPWTFGQGTKLEIK
B9: antibody 366 (antibody, V domains shown)
VH: QVQLVESGGGVVQPGRSLRLSCAASGFTFSSYAMHWVRQAPGKGLEWVAVISYDGSNKYYADSVKGRFTISRDNSKNTLYLQMNSLRAEDTAVYYCARGLVGYNWFDPWGQGTLVTVSS
VL: DIQMTQSPSSVSASVGDRVTITCRASQGISSWLAWYQQKPGKAPKLLIYAASSLQSGVPSRFSGSGSGTDFTLTISSLQPEDFATYYCQQANSFTFGPGTKVDIK
B10: antibody 333 (antibody, V domains shown)
VH: QVHLVESGGGVVLPGRSLRLSCSASQFIFSNYDMHWVRQSPGMGLEWVAGISSDGSDKYYIDSVRGRFTISRDNAKNTLFLQMNSLTTEDTAVYSCAKGGGKFGQYWGRGTLVTVSS
VL: AIQMTQSPSSLSASVGDRVTITCRASQVIRNDLAWFQQKPGEAPNLLVYSASNLQSGVPSRFSGSGSGTDFTLTISSLQPEDFATYYCLQDYSYPYTFGQGTKLDMK
B11: antibody 348 (antibody, V domains shown)
VH: QVQLVQSGSELKKPGASVKVSCKASGYTFTSYAMNWVRQAPGQGLEWMGWINTNTGNPTYAQGFTGRFVFSLDTSVSTAYLQISSLKAEDTAVYYCARDHELPNTSSWFGHFEYWGQGTLVTVSS
VL: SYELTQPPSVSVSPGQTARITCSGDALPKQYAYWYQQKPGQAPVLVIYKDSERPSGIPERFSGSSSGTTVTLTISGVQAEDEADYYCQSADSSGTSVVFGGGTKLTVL
B12: antibody 351 (antibody, V domains shown)
VH: HVQLVESGGGVVQPGRSLRLSCAASGFISRNYGMEWVRQAPGQGLEWVAGIWYDGSKKYYADSVKGRFTISRDTSKNTLFLQMDSLRAEDTAVFYCATATKTFCGGDCPPGGMDVWGQGTTVTVST
VL: SYVLTQPPSVSVAPGKTAWITCVGNNIESESVHWYQQRPGQAPVLVIYYDSDRPSGIPERFFGSNSGNTATLTISRVEAGDEADYYCQVWDSNSDLMVFGGGTKLTVL
B13: antibody 331 (antibody, V domains shown)
V domain 1: QITLKESGPTLVKPTETLTLTCSFSGFSLTKTGEAAGWIRQAPGRALEWVTVIFWDDDKRYSPSLQNRISVTKDTSKNQVVLRMTNVARFDTGTYFCWAMGGPGKEYFGQGTLVAVSS
V domain 2: QSVLTQPPSVSGAPGQRVTISCTGTSSSIGPYSDVHWYQHVSGKAPRLLIFGNSNRPSGVPDRFSGSKSGTSASLVIAGLQAEDEADYYCQSYDSSLGEIYVFGTGTTVTVL
B14: antibody 339 (antibody, V domains shown)
V domain 1: B13 V domain 1 with K31R, N67S, I69L, S70T, R83T, G93A, L113Q
V domain 2: B13 V domain 2
B15: antibody 372 (antibody, V domains shown)
VH: QVQLVESGGGVVQPGRSLRLSCAASGFTFSSYAMHWVRQAPGKGLEWVAVISYDGSNKYYADSVKGRFTISRDNSKNTLYLQMNSLRAEDTAVYYCARDLGTSALLWFGELFLNYGMDVWGQGTTVTVSS
VL: QSALTQPRSVSGSPGQSVTISCTGTSSDVGGYNYVSWYQQHPGKAPKLMIYDVSKRPSGVPDRFSGSKSGNTASLTISGLQAEDEADYYCCSYAGSPILVFGGGTKLTVL
B16: antibody 365 (antibody, V domains shown)
VH: QVQLVESGGGVVQPGRSLRLSCAASGFNLSSYAMHWVRQASGKGLEWVSLISYDGSIKYYTDSVKGRFTVSGDNSKNTLFLQMNSLRPDDSALYYCVRGGVSGPNSFDMWGQGTTVTVSS
VL: DVVMTQSPLSLPVTLGQPASISCRSSQSLVYSDGNTYVNWFQQRPGQSPRRLIYKVSIRASGVPDRFSGSGSGTDFALKISRVEAEDVGVYYCMQGTHWPVTFGQGTKVEIK
B17: antibody 327 (antibody, V domains shown)
VH: B16 VH with S31N
VL: B16 VL with K55Q, V90I
B18: antibody 340 (antibody, V domains shown)
VH: QVQLVQSGAEVKKPGASVKVSCKASGYTFTSYDINWVRQATGQGLEWMGWMNPNSGNTGYAQKFQGRVTMTRNTSISTAYMELSSLRSEDTAVYYCARGRYCTGGVCWGDWYFDLWGRGTLVTVSS
VL: QSVLTQPPSVSGAPGQRVTISCTGSSSNIGAGYDVHWYQQLPGTAPKFLIYGNSNRPSGVPDRFSGSKSGTSASLAITGLQAEDEADYYCQSYDSSLSGPVFGGGTKLTVL
B19: antibody 329 (antibody, V domains shown)
VH: EVQLVESGGGLVQPGGSLRLSCAASGFTFSSYWMHWVRQAPGKGLVWVSRINSDGSSTSYADSVKGRFTISRDNAKNTLYLQMNSLRAEDTAVYYCAREGIVATITLDYWGQGTLVTVSS
VL: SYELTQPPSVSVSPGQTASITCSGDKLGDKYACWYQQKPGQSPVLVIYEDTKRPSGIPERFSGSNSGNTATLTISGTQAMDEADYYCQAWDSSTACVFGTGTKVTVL
B20: antibody 326 (antibody, V domains shown)
VH: QITLKESGPTLVKPTQTLTLTCTFSGFSLNTSGVGVGWIRQPPGKALEWLSLIFWNDDKRYSPSLRSRLTITKDTSKNQVVLTMTNMDPVDTATYFCAHRNSGWSLKFDSWGQGSLVTVSA
VL: DIQMTQSPSSVSASVGDRVTITCRARQGISSWLVWYQQKPGKAPKLLIFGASSLQSGVPSRFNASGTGTEFTLTISSLQPEDFATYYCQQADSFPITFGQGTRLEIK
B21: antibody 345 (antibody, V domains shown)
VH: QVQLQESGPGLVKPSQTLSLTCTVSGGSISSGDYYWSWIRQPPGKGLEWIGYIYYSGSTYYNPSLKSRVTISVDTSKNQFSLKLSSVTAADTAVYYCARVGMVDNWNFEGNWFDPWGQGTLVTVSS
VL: QSALTQPRSVSGSPGQSVTISCTGTSSDVGGYNYVSWYQQHPGKAPKLMIYDVSKRPSGVPDRFSGSKSGNTASLTISGLQAEDEADYYCCSYAGSVVFGGGTKLTVL
B22: antibody 496 (antibody, V domains shown)
VH: QVQLVQSGAEVKKPGASVKVSCKASGYTFTDYYIHWVRQAPGQGLEWMGWINPNSGGTNYAQKFQGRLTMTRDTSISTAYMELSRLRSDDTAVYYCARVYSMFREFIINPYYYYYGLDVWGQGTTVTVSS
VL: B4 VL with G15R, V53G, T76A, D87N, T97S, H98T, Y99L, T103G, V107L
B23: antibody 492 (antibody, V domains shown)
VH: QVQLVESGGGVVQPGRSLRLSCAASGFTFSSYGMHWVRQAPGKGLEWVAVISYDGSNKYYADSVKGRFTISRDNSKNTLYLQMNSLRAEDTAVYYCAKDGILWWWWGYFDYWGQGTLVTVSS
VL: QSVLTQPPSVSGAPGQRVTISCTGSSSNIGAGFDVHWYQQLPGTAPKLLIYGNSNRPSGVPDRFSGSKSGTSASLAITGLQAEDEADYYCQSYDSSLSVVFGGGTKLTVL

target: SARS-CoV-2 spike (S) protein, full length, wild type, expressed on the surface of CHO cells (SARS-CoV-2, UniProt P0DTC2 14-1273)

Going from B1 to B2, the “median fluorescence fold over isotype” value rises from 7.55 fold over isotype to 9.44 fold over isotype.

Going from B3 to B4, the “median fluorescence fold over isotype” value rises from 1.12 fold over isotype to 20.6 fold over isotype.

Going from B5 to B6, the “median fluorescence fold over isotype” value rises from 25.3 fold over isotype to 26.5 fold over isotype.

Going from B7 to B8, the “median fluorescence fold over isotype” value falls from 16.8 fold over isotype to 1.06 fold over isotype.

First: B9
Second: B10
The “median fluorescence fold over isotype” value of the first is higher: 8.97 fold over isotype for the first, 1.27 fold over isotype for the second.

First: B11
Second: B12
The “median fluorescence fold over isotype” value of the first is higher: 19.6 fold over isotype for the first, 1.06 fold over isotype for the second.

Going from B13 to B14, the “median fluorescence fold over isotype” value rises from 20.1 fold over isotype to 21.2 fold over isotype.

First: B15
Second: B16
The “median fluorescence fold over isotype” value of the first is higher: 30.2 fold over isotype for the first, 10.7 fold over isotype for the second.

Going from B17 to B18, the “median fluorescence fold over isotype” value rises from 9.54 fold over isotype to 33.2 fold over isotype.

Going from B19 to B20, the “median fluorescence fold over isotype” value rises from 9.41 fold over isotype to 10.1 fold over isotype.

In the case of B21, the “median fluorescence fold over isotype” value is reported as 11.7 fold over isotype.

target: SARS-CoV-2 full length spike protein, wild type, expressed on the surface of CHO cells (SARS-CoV-2, UniProt P0DTC2 14-1273)

Compared with B22, B23 is lower in “median fluorescence fold over isotype control” value: 19.7 fold over isotype for the first, 9.25 fold over isotype for the second.
